The values below come from patent EP4585618A1 (Jiangsu Hengrui Pharmaceuticals Co., Ltd., dated 2025).

Assay [1] has as its target T1, full-length human ILT4 protein overexpressed on cells (human, UniProt Q8N423 22-597).
T1 construct: also called CHO-S/ILT4; ILT4 stably transfected cell strain
In words: flow cytometry (FACS) on CHO-S/ILT4 cells; Assay 1. For orientation: A flow cytometer gives signals particle by particle.

In assay [2] the target is T2, His-tagged ILT4 protein extracellular domain: ILT4-His (human, UniProt Q8N423 22-460).
T2 construct: Expressed in 293 cells; also called human ILT4-His protein
The experiment in a line: SPR (Biacore), antibody captured on Protein A chip, ILT4-His as analyte, 1:1 model. In general terms: In SPR one partner is held on a chip, and binding of the other changes the refractive index at the surface.

In assay [3] the target is T1, full-length human ILT4 protein …. The experiment in a line: flow cytometry competition on CHO-S/ILT4 cells; competitor CF647-labelled HLA-G tetramer; Assay 1.
Assay [4] has the same target. In words: flow cytometry competition on CHO-S/ILT4 cells; competitor CF647-labelled HLA-G tetramer; Assay 2.
Assay [5] shares this target. The experiment in a line: flow cytometry competition on CHO-S/ILT4 cells; competitor CF647-labelled HLA-G tetramer; Assay 3.
For assay [6] the target is unchanged. In words: flow cytometry competition on CHO-S/ILT4 cells; competitor CF647-labelled HLA-G tetramer; Assay 4.
Assay [7] concerns the target T2, His-tagged ILT4 protein extracellular …. The experiment in a line: phage ELISA. In general terms: An ELISA detects its analyte on a solid surface through an enzyme-linked reagent.
Assay [8] addresses T3, His-tagged ILT2 protein extracellular domain: ILT2-His (human, UniProt Q8NHL6 24-461).
T3 construct: The entry is the whole construct, with the His tag; also called human ILT2 protein
The experiment in a line: phage ELISA.

T2 sequence (Q8N423 other isoform, or with tags, fused parts or gaps limits assumed): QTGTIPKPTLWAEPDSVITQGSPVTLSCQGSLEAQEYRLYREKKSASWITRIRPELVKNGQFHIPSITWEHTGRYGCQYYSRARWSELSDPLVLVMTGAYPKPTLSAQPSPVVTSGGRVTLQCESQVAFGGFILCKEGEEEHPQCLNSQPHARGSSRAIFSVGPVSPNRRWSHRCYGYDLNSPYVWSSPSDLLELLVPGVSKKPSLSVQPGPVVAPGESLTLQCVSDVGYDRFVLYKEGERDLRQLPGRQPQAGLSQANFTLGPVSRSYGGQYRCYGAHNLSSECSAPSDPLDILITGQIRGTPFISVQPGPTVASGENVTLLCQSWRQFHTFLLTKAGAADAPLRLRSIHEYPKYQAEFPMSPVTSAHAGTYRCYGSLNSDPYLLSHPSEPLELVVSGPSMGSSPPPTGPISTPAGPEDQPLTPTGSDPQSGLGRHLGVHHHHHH
T1 sequence (Q8N423 other isoform, or with tags, fused parts or gaps limits assumed): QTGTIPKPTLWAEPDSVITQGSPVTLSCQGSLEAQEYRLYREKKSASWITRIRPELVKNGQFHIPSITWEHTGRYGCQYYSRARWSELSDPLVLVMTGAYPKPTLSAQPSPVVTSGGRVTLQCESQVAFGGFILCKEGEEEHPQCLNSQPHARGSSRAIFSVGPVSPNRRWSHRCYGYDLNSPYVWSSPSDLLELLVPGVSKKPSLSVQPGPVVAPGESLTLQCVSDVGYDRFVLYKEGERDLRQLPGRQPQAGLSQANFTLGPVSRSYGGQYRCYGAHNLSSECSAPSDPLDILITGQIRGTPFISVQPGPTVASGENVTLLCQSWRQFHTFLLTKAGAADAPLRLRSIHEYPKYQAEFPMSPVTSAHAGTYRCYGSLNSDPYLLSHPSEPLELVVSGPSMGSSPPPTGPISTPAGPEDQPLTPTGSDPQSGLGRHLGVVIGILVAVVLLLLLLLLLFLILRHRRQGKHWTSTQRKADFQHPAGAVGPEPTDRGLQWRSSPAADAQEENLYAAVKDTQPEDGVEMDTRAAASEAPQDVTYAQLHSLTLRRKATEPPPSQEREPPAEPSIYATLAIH
T3 sequence (Q8NHL6 other isoform, or with tags, fused parts or gaps): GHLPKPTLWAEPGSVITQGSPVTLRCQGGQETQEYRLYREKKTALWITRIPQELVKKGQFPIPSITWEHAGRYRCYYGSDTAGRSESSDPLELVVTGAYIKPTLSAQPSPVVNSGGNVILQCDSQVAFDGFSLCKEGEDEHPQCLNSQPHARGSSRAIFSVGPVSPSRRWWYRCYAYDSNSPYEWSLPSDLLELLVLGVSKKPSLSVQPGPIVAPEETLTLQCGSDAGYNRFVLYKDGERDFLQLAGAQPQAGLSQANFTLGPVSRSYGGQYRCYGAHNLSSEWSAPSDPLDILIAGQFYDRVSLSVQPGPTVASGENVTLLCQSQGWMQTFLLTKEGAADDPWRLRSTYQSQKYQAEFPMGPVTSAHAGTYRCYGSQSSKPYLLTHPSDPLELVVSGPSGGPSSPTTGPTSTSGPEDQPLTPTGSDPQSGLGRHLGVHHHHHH

B1: positive control antibody MK (sequences from WO2018187518A1) (antibody, human IgG4 S228P, lambda, V domains shown)
VH: EVQLQQWGAGLLKPSETLSLTCAVYGGSFSGYYWSWIRQPPGKGLEWIGEINHAGSTNYNPSLKSRVTISVDTSKNQFSLKLSSVTAADTAVYYCARLPTRWVTTRYFDLWGRGTLVTVSS
VL: ESVLTQPPSVSGAPGQRVTISCTGSSSNIGAGYDVHWYQQLPGTAPKLLIYGDSNRPSGVPDRFSVSKSGASASLAITGLQAEDEADYYCQSFDNSLSAYVFGGGTQLTVLG
Turning to B1, in assay [1], the EC50 (usually the concentration at which the effect is half-maximal) stood at 0.031 µg/mL. For the same molecule, in assay [2], the dissociation constant (Kd) (usually the equilibrium constant for the complex coming apart) is 19.1 nM. In assay [2], the koff (in general, the rate constant with which the complex falls apart) came to 0.00863 s⁻¹. For the same molecule, the on-rate (kon) (commonly a measure of how fast the partners come together) in assay [2] was 452000 M⁻¹ s⁻¹. Besides, the IC50 (as a rule, the concentration that gives 50% inhibition) in assay [3] was determined as 0.031 µg/mL; in assay [4], 0.138 µg/mL; in assay [5], 0.138 µg/mL; in assay [6] it was 0.092 µg/mL.

B2: P2 (fully human-derived antibody clone from phage library screening) (antibody, V domains shown)
VH: QVQLVQSGAEVKKPGSSVKVSCKASGYTFTSYDISWVRQAPGQGLEWMGGIIPIFGTANYAQKFQGRVTITADESTSTAYMELSSLRSEDTAVYYCTAGIFLATAYWGQGTLVTVSS
VL: DIQMTQSPSSMSASVGDRVTISCQASQDINNYLNWYQQRPGQAPKLLIYDASTLETGVPSRFSGSGSGTYFTLTITSLQPADVATYYCQQYENVPITFGQGTRLEIK
With B2, the results for the binding result in assay [7] and in assay [8] were “binds” and “no binding”, respectively.
